Test results: patent publication US20100034812A1
Like-named read-outs stand apart in the source and are kept apart here.

Columns and labels:
[1] = target: recombinant birch pollen allergen Bet v 1 (Betula verrucosa) (UniProt P15494); experiment: ELISA, IgE of control serum on rBet v 1 after clone 13
[2] = target: recombinant birch pollen allergen Bet v 1 (Betula verrucosa) (UniProt P15494); experiment: ELISA, IgE of control serum on rBet v 1 after clone 2
[3] = target: recombinant birch pollen allergen Bet v 1 (Betula verrucosa) (UniProt P15494); experiment: as above; remark: listed apart in the source
[4] = target: recombinant birch pollen allergen Bet v 1 (Betula verrucosa) (UniProt P15494); experiment: ELISA, IgE of control serum on rBet v 1 after clone 10
[5] = target: recombinant birch pollen allergen Bet v 1 (Betula verrucosa) (UniProt P15494); experiment: ELISA, IgE of control serum on rBet v 1 after clone 12
[6] = target: recombinant birch pollen allergen Bet v 1 (Betula verrucosa) (UniProt P15494); experiment: ELISA, IgE of control serum on rBet v 1 after clone 10; remark: listed apart in the source
[7] = target: recombinant birch pollen allergen Bet v 1 (Betula verrucosa) (UniProt P15494); experiment: ELISA, IgE of non-allergic control serum on rBet v 1
[8] = target: recombinant birch pollen allergen Bet v 1 (Betula verrucosa) (UniProt P15494); experiment: as above; remark: listed apart in the source
[9] = target: recombinant birch pollen allergen Bet v 1 (Betula verrucosa) (UniProt P15494); experiment: ELISA, IgE of control serum on rBet v 1 after clone 4
[10] = target: recombinant birch pollen allergen Bet v 1 (Betula verrucosa) (UniProt P15494); experiment: ELISA, IgE of control serum on rBet v 1 after clone 13; remark: listed apart in the source
[11] = target: recombinant birch pollen allergen Bet v 1 (Betula verrucosa) (UniProt P15494); experiment: ELISA, IgE of control serum on rBet v 1 after clone 12; remark: listed apart in the source
[12] = target: recombinant birch pollen allergen Bet v 1 (Betula verrucosa) (UniProt P15494); experiment: ELISA, IgE of control serum on rBet v 1 after clone 4; remark: listed apart in the source

Chain of UniProt P15494 (P15494 2-160 limits assumed): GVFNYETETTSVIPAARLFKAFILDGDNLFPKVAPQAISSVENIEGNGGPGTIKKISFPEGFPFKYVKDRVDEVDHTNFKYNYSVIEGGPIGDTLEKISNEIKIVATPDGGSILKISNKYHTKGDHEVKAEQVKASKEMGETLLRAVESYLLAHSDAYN

serum from a non-allergic person (antibody)
OD with mAb [1]: 0.15 OD
OD with mAb [2]: 0.09 OD
OD with mAb [3]: 0.03 OD
OD with mAb [4]: 0.03 OD
OD with mAb [5]: 0.14 OD
OD with mAb [6]: 0.09 OD
OD without mAb [7]: 0.03 OD
OD without mAb [8]: 0.06 OD
OD with mAb [9]: 0.09 OD
OD with mAb [10]: 0.08 OD
OD with mAb [11]: 0.04 OD
OD with mAb [12]: 0.04 OD
